Measurements as given in PMC12324117.

Molecular target: LRRC4B (453–576) protein (UniProt Q9NT99)
Test: ELISA; plates coated with LRRC4B (453–576) protein at 1 µg/ml in 50 mM carbonate buffer pH 9.6; FAM19A5 added; detected with HRP-conjugated C-A5-Ab; OD 450 nm (format as told for the CSF ELISA); n = 10 each

Sequence of UniProt Q9NT99 (Q9NT99 453-576): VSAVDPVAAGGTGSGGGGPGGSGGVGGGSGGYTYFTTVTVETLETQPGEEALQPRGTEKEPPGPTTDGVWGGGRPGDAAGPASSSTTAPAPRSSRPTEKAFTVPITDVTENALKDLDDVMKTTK

Substance	EC50
WT FAM19A5 protein (ELISA) (natural protein)	0.199 nM
MT FAM19A5 protein (ELISA) (natural protein)	2.56 nM
